Data on 25 molecules can be found in patent US20250163140A1 (Kyowa Kirin, published 2025).

Changes are numbered by the printed parent chain. Names and notes keep the numbering of the source. A value given as a limit tells only on which side of the number the result lay.

Sequences and labels used below:
T1: Recombinant Human FGF-23 (R&D Systems, Cat No. 2604-FG-025/CF) (human, UniProt Q9GZV9 25-251)
T1 sequence (looked up): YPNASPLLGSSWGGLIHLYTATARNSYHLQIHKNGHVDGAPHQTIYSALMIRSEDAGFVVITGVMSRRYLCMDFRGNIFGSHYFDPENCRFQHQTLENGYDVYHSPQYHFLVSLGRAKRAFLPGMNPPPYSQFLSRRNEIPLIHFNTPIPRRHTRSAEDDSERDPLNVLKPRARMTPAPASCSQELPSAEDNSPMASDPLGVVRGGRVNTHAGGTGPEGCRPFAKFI

B1: antibody I100Y (antibody, human IgG1, V domains shown)
VH: QVQLVQSGAEVKKPGASVKVSCKASGYTFTNHYMHWVRQAPGQGLEWMGIINPISGSTSNAQKFQGRVTMTRDTSTSTVYMELSSLRSEDTAVYYCARDYVDAFDFWGQGTMVTVSS
VL: AIQLTQSPSSLSASVGDRVTITCRASQGISSALVWYQQKPGKAPKLLIYDASSLESGVPSRFSGSGSGTDFTLTISSLQPEDFATYYCQQFNDYFTFGPGTKVDIK
notes: also called modified antibody I100
B2: antibody I100G (antibody, human IgG1, V domains shown)
VH: B1 VH with Y100G
VL: B1 VL
notes: as for B1
B3: antibody I100N (antibody, human IgG1, V domains shown)
VH: B1 VH with Y100N
VL: B1 VL
notes: as for B1
B4: antibody I100H (antibody, human IgG1, V domains shown)
VH: B1 VH with Y100H
VL: B1 VL
notes: as for B1
B5: antibody I100D (antibody, human IgG1, V domains shown)
VH: B1 VH with Y100D
VL: B1 VL
notes: as for B1
B6: antibody I100R (antibody, human IgG1, V domains shown)
VH: B1 VH with Y100R
VL: B1 VL
notes: as for B1
B7: antibody A_G2AAAS_A (antibody)
chain 1: QVQLVQSGAEVKKPGASVKVSCKASGYTFTNHYMHWVRQAPGQGLEWMGIINPISGSTSNAQKFQGRVTMTRDTSTSTVYMELSSLRSEDTAVYYCARDIVDAFDFWGQGTMVTVSSASTKGPSVFPLAPCSRSTSESTAALGCLVKDYFPEPVTVSWNSGALTSGVHTFPAVLQSSGLYSLSSVVTVPSSNFGTQTYTCNVDHKPSNTKVDKTVERKCCVECPPCPAPPAAAPSVFLFPPKPKDTLMISRTPEVTCVVVDVSHEDPEVQFNWYVDGVEVHNAKTKPREEQFNSTFRVVSVLTVVHQDWLNGKEYKCKVSNKGLPASIEKTISKTKGQPREPQVYTLPPSREEMTKNQVSLTCLVKGFYPSDISVEWESNGQPENNYKTTPPMLDSDGSFFLYSKLTVDKSRWQQGNVFSCSVMHEALHAHYTQKSLSLSPGK
chain 2: not shown
B8: antibody A_G2AAAS_QL (antibody)
chain 1: B7 chain 1 with T246Q, M424L, A430N
chain 2: not shown
B9: antibody A_IgG4PE_R409K_QL (antibody)
chain 1: QVQLVQSGAEVKKPGASVKVSCKASGYTFTNHYMHWVRQAPGQGLEWMGIINPISGSTSNAQKFQGRVTMTRDTSTSTVYMELSSLRSEDTAVYYCARDIVDAFDFWGQGTMVTVSSASTKGPSVFPLAPCSRSTSESTAALGCLVKDYFPEPVTVSWNSGALTSGVHTFPAVLQSSGLYSLSSVVTVPSSSLGTKTYTCNVDHKPSNTKVDKRVESKYGPPCPPCPAPEFEGGPSVFLFPPKPKDQLMISRTPEVTCVVVDVSQEDPEVQFNWYVDGVEVHNAKTKPREEQFNSTYRVVSVLTVLHQDWLNGKEYKCKVSNKGLPSSIEKTISKAKGQPREPQVYTLPPSQEEMTKNQVSLTCLVKGFYPSDIAVEWESNGQPENNYKTTPPVLDSDGSFFLYSKLTVDKSRWQEGNVFSCSVLHEALHNHYTQKSLSLSLGK
chain 2: not shown
B10: antibody A_IgG4PE_R409K (antibody)
heavy: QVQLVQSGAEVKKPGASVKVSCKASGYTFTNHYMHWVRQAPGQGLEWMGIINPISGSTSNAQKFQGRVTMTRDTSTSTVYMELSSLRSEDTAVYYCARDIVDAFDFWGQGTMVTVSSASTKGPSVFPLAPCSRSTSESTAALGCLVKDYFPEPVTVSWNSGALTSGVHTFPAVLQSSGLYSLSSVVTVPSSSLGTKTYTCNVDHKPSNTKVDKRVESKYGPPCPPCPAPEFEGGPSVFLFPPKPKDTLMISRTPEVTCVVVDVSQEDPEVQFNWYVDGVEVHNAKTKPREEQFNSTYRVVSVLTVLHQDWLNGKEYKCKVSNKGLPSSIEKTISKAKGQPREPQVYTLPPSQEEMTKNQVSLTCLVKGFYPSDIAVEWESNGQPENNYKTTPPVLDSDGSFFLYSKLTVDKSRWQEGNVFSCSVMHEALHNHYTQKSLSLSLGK
VL: B1 VL
notes: copies: 2 + 2
B11: antibody A_G2 (antibody, human IgG2)
heavy: B7 chain 1 with A231V, A233G, S327P, S374A, A430N
light: B1 VL
notes: domain: CH; CH of antibody A replaced by a CH of human IgG2; also called A2_G2; not shown: human kappa chain constant region; copies: 2 + 2
B12: antibody A_IgG4PE_R409K_YTE (antibody)
heavy: B9 chain 1 with Q247T, M249Y, S251T, T253E, L425M
VL: B1 VL
notes: copies: 2 + 2
B13: antibody A_IgG4PE_R409K_P (antibody)
heavy: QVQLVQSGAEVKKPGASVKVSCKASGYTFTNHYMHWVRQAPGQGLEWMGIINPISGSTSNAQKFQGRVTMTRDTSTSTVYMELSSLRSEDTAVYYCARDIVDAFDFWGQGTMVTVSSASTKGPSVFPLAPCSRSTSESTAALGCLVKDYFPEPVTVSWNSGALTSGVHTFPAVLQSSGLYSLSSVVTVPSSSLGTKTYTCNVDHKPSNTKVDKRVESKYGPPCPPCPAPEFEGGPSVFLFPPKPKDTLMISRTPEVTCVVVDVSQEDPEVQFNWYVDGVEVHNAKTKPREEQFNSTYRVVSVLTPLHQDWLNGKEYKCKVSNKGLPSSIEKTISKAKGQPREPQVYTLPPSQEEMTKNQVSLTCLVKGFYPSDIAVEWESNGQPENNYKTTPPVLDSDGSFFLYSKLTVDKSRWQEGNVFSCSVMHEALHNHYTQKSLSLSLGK
light: B1 VL
notes: not shown: human kappa chain constant region; copies: 2 + 2
B14: antibody A_YTE (antibody, IgG1)
heavy: QVQLVQSGAEVKKPGASVKVSCKASGYTFTNHYMHWVRQAPGQGLEWMGIINPISGSTSNAQKFQGRVTMTRDTSTSTVYMELSSLRSEDTAVYYCARDIVDAFDFWGQGTMVTVSSASTKGPSVFPLAPSSKSTSGGTAALGCLVKDYFPEPVTVSWNSGALTSGVHTFPAVLQSSGLYSLSSVVTVPSSSLGTQTYICNVNHKPSNTKVDKKVEPKSCDKTHTCPPCPAPELLGGPSVFLFPPKPKDTLYITREPEVTCVVVDVSHEDPEVKFNWYVDGVEVHNAKTKPREEQYNSTYRVVSVLTVLHQDWLNGKEYKCKVSNKALPAPIEKTISKAKGQPREPQVYTLPPSRDELTKNQVSLTCLVKGFYPSDIAVEWESNGQPENNYKTTPPVLDSDGSFFLYSKLTVDKSRWQQGNVFSCSVMHEALHNHYTQKSLSLSPGK
light: B1 VL
notes: IgG1 CH with M252Y/S254T/T256E (EU index); not shown: human kappa chain constant region; copies: 2 + 2
B15: antibody A_G2_P (antibody, human IgG2, name in EU numbering)
heavy: B7 chain 1 with A231V, A233G, V304P, S327P, A430N
light: B1 VL
notes: domain: CH; Human IgG2 CH with modification (10-4), EU index; not shown: human kappa chain constant region; copies: 2 + 2
B16: antibody A_G2_YTE (antibody)
heavy: B7 chain 1 with A231V, A233G, M248Y, S250T, T252E, S327P, S374A, A430N
light: B1 VL
notes: as for B13
B17: antibody A_G2_A (antibody, human IgG2, name in EU numbering)
heavy: B7 chain 1 with A231V, A233G, S327P
light: B1 VL
notes: domain: CH; Human IgG2 CH with modification (10-3), EU index; not shown: human kappa chain constant region; copies: 2 + 2
B18: antibody A-1 (antibody, V domains shown)
VH: B1 VH with I50L, I54W, S55H, S57T, T58F, Y100A
VL: B1 VL
notes: VH J2H2B9_A; not shown: human kappa chain constant region
B19: antibody A-6 (antibody, V domains shown)
VH: B1 VH
VL: B1 VL with G28D, I29V, S31T, V34L
notes: VL L1H8; not shown: human kappa chain constant region
B20: antibody A-2 (antibody, V domains shown)
VH: B1 VH with I50L, I54W, S55H, S57T, T58F
VL: B1 VL
notes: VH J2H2B9_Y; not shown: human kappa chain constant region
B21: antibody A-7 (antibody, V domains shown)
VH: B1 VH with Y100A
VL: B1 VL with F91L, N92Y, Y94D, T96D
notes: VL 2L3H7; not shown: human kappa chain constant region
B22: antibody A-5 (antibody, V domains shown)
VH: B1 VH with Y100A
VL: B1 VL with G28D, I29V, S31T, V34L
notes: as for B19
B23: antibody A-4 (antibody, V domains shown)
VH: B1 VH
VL: B1 VL with F91M, N92Y, Y94D, T96N
notes: VL L3G12; not shown: human kappa chain constant region
B24: antibody A-3 (antibody, V domains shown)
VH: B1 VH with Y100A
VL: B1 VL with F91M, N92Y, Y94D, T96N
notes: as for B23
B25: antibody A-8 (antibody, V domains shown)
VH: B1 VH
VL: B1 VL with F91L, N92Y, Y94D, T96D
notes: as for B21

For orientation: Kd means the free concentration of one partner at which half of the binding sites on the other are occupied at equilibrium, for simple one-to-one binding.

T2 sequence (Q8SPV9 other isoform, or with tags, fused parts or gaps limits assumed, chain 1 of 2): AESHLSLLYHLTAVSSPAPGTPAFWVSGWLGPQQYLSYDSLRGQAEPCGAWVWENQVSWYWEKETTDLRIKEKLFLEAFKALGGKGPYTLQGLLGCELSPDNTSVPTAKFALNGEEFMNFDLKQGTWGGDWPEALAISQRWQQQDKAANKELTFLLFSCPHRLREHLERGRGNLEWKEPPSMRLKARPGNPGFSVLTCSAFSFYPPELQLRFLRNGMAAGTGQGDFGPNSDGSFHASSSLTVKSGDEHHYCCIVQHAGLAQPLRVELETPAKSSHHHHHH
T2 sequence (Q8SPW0 21-119 limits assumed, chain 2 of 2): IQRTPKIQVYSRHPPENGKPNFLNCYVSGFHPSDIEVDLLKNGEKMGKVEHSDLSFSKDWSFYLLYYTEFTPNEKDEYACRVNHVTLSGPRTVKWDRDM
T3 sequence (P55899 other isoform, or with tags, fused parts or gaps limits assumed, chain 1 of 2): as the sequence (Q8SPV9 other isoform, or with tags, fused parts or gaps limits assumed, chain 1 of 2) above, with D39N, Q44E, S99G, G189S, N190S, M217L, T269S counted along it
T3 sequence (P61769 21-119 limits assumed, chain 2 of 2): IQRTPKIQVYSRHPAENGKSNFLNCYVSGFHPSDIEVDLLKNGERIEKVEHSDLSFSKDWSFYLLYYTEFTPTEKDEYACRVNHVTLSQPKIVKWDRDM

The target of one experiment is T1, Recombinant Human FGF-23 (R&D Systems, …). As to the kind of experiment: cell-based or functional assay.
For B1, the “FGF23 neutralizing activity IC50 (luciferase promoter assay)” value (“FGF23 neutralizing activity IC50” for short) was found to be 3 ng/mL.

Regarding B2, the “FGF23 neutralizing activity IC50” value was above 100 ng/mL.

Regarding B3, the “FGF23 neutralizing activity IC50” value was 26.2 ng/mL.

For the molecule B4, the “FGF23 neutralizing activity IC50” value is 8.9 ng/mL.

As to B5, the “FGF23 neutralizing activity IC50” value is above 100 ng/mL.

Regarding B6, the “FGF23 neutralizing activity IC50” value came to 82.5 ng/mL.

A further experiment addresses T2, monkey FcRn (monkey FcRn-His tag with monkey β2 microglobulin) (cynomolgus monkey, UniProt Q8SPV9 24-297; Q8SPW0 21-119).
T2 construct: also called cyno FcRn; cynomolgus monkey FcRn extracellular domain His-tag body
In words: SPR pH 6, FcRn-His captured by anti-His, antibody analyte.
The molecule B7 displayed a Kd of 129 nM.

Molecule B8 returned a Kd of 69 nM.

Regarding B9, the Kd was found to be 87 nM.

For B10, the Kd worked out at 324 nM.

B11: binding was characterised by a dissociation constant (Kd) of 233 nM.

B12 returned a Kd of 123 nM.

With B13, the Kd was 76.9 nM.

Take B14: the Kd is 115 nM.

Consider B15, for which binding was characterised by a dissociation constant (Kd) of 78.2 nM.

On to B16, for which the affinity, expressed as Kd, was 39.1 nM.

In the case of B17, the affinity, expressed as Kd, was 133 nM.

A further experiment addresses T3, human FcRn (human FcRn-His tag with human β2 microglobulin) (human, UniProt P55899 24-297; P61769 21-119).
T3 construct: also called h FcRn; hFcRn
Described as above.
As for B7, binding was characterised by a dissociation constant (Kd) of 247 nM.

In turn, B8 gave a Kd of 213 nM.

Molecule B9 displayed a Kd of 265 nM.

Molecule B10 gave a Kd of 912 nM.

Molecule B11 displayed a Kd of 624 nM.

Molecule B12 yielded a Kd of 227 nM.

Regarding B13, the Kd stood at 192 nM.

In turn, B14 showed a Kd of 159 nM.

Consider B15, for which the Kd is 234 nM.

In turn, B16 came in with a Kd of 186 nM.

In turn, B17 displayed a Kd of 286 nM.

In the next experiment the target is T1, Recombinant Human FGF-23 (R&D Systems, …). In words: cell-based or functional assay. This is another data set of the same source.
Turning to B18, the “FGF23 neutralizing activity IC50” value is 3.5 ng/mL.

As for B19, the “FGF23 neutralizing activity IC50” value turned out to be 3.6 ng/mL.

As for B20, the “FGF23 neutralizing activity IC50” value is 3.4 ng/mL.

As to B21, the “FGF23 neutralizing activity IC50” value worked out at 3.2 ng/mL.

Take B22: the “FGF23 neutralizing activity IC50” value stood at 1.9 ng/mL.

Take B23: the “FGF23 neutralizing activity IC50” value worked out at 1.9 ng/mL.

Regarding B24, the “FGF23 neutralizing activity IC50” value is 2.7 ng/mL.

For the molecule B25, the “FGF23 neutralizing activity IC50” value was determined as 2.4 ng/mL.

A further experiment has the same target. In words: SPR, antibody captured by anti-human IgG, FGF-23 analyte. On the technique in general: Surface plasmon resonance follows binding to a sensor surface in real time, without labels.
Take B1: the Kd worked out at 0.0186 nM.

Consider B2, for which the Kd was determined as 0.149 nM.

As for B3, the Kd was 0.0934 nM.

As to B4, the Kd stood at 0.0672 nM.

As for B5, the Kd was found to be 0.219 nM.

Consider B6, for which the Kd worked out at 0.222 nM.

For a further experiment the target is unchanged. As to the kind of experiment: SPR, antibody captured on Protein A chip, FGF-23 analyte.
Regarding B18, the Kd is 0.00822 nM.

On to B19, for which the Kd came to 0.0113 nM.

B20: the Kd is 0.00808 nM.

On to B21, for which the Kd amounted to 0.0161 nM.

For the molecule B22, the Kd is 0.00361 nM.

With B23, the Kd was determined as 0.00874 nM.

Turning to B24, the Kd came out at 0.00827 nM.

Consider B25, for which the Kd was determined as 0.0067 nM.
